Experimental data as given in PMC3817195, “Crystal Structure of a Four-Layer Aggregate of Engineered TMV CP Implies the Importance of Terminal Residues for Oligomer Assembly” (PLoS ONE, 2013).

B1: N-His-TMV CP^19 (tobacco mosaic virus coat protein, N-terminal six-His tag, C-terminal residues 155-158 truncated) (domain or fragment)
chain: SYSITTPSQFVFLSSAWADPIELINLCTNALGNQFQTQQARTVVQRQFSEVWKPSPQVTVRFPDSDFKVYRYNAVLDPLVTALLGAFDTRNRIIEVENQANPTTAETLDATRRVDDATVAIRSAINNLIVELIRGTGSYNRSSFESSSGLVWTS
notes: Tobacco mosaic virus (common strain) coat protein, residues 1-154; Gly155, Pro156, Ala157 and Thr158 deleted at the C-terminus; no tag cleavage is described; Oligomeric state depends on buffer: monomer and dimer, 20S, disks, four-layer aggregate, rods; also called genetically engineered TMV CP; truncated TMV CP; source: E. coli BL21 (DE3) RIL, purified (HisTrap, gel filtration on superdex 200); …
B2: wild type TMV CP (tobacco mosaic virus coat protein) (natural protein)
chain: SYSITTPSQFVFLSSAWADPIELINLCTNALGNQFQTQQARTVVQRQFSEVWKPSPQVTVRFPDSDFKVYRYNAVLDPLVTALLGAFDTRNRIIEVENQANPTTAETLDATRRVDDATVAIRSAINNLIVELIRGTGSYNRSSFESSSGLVWTSGPAT
notes: also called WT TMV CP; wild TMV CP

Experiments:
[1] = target: the molecule itself; experiment: SEC; freshly purified protein, 20 mM sodium phosphate, 100 mM NaCl, pH 8.0; superdex 200, 4°C
[2] = target: the molecule itself; experiment: native gel or EMSA; native-PAGE on ice (4% stacking, 17% separating gel, Tris-Gly pH 8.8); samples equilibrated overnight in 10 mM PB pH 7.2, 100 mM NaCl

Protein	stoichiometry N [1]	binding result [2]
B1	2	–
B2	–	binds
